Laboratory results reported in patent US20210032312A1 (Janssen / Centocor, published 2021).

Experiments:
[1] = target: T1, human CD8A-Fc (recombinant human CD8 alpha fused to Fc fragment of human IgG1) (human, UniProt P01732 22-182, limits assumed); experiment: SPR, dissociation rate on recombinant CD8 alpha
T1 construct: SPR ligand, captured by goat anti-human Fc; also called hCD8A-Fc; recombinant CD8 alpha; not shown: linker with flag (and polyhistidine) tag and Fc fragment of human IgG1; depends on which of the two constructs was used
T1 sequence (P01732 22-182 limits assumed): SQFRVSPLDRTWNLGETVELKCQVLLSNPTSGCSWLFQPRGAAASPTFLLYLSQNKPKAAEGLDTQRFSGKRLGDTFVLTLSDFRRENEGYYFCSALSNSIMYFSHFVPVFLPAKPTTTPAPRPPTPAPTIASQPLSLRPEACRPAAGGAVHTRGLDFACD

[2] = target: T1, human CD8A-Fc (recombinant human CD8 …); experiment: SPR (ProteOn), captured hCD8A-Fc, heterogeneous ligand fit, lower affinity population
Description: (§1) Human CD8A-Fc was then captured at five surface densities ranging from 200 to 1200 response units, leaving the 6th channel as empty channel control for GAH-Fc IgG surface. Binding was measured by flowing five different concentrations of anti-CD8A FN3 domains (1 μM diluted in a 3-fold dilution series) as analytes simultaneously in the horizontal orientation over the captured hCD8A-Fc surfaces, with a sixth analyte channel containing only running buffer PBST. All interactions were measured at 100 uL/min flow rate with association and dissociation times being 4, 30 minutes respectively. […] Data analyses were performed using Bio-Rad ProteOn Manager software (version 3.1.0.6). Raw data were double referenced by subtraction of the interspot (empty chip surface, no protein immobilized or captured) signals to correct the non-specific binding of the FN3 domain to the pre-coated GAH-Fc IgG surface, followed by a double referencing using the buffer blank response (to correct for any baseline drift resulting from ligand dissociation over time). […] Given that the GAH-Fc capture of hCD8A-Fc format is the least disruptive relative to other formats in introducing potential experimental artifacts (such as ligand activity loss and/or artificial eptiopes/heterogeneous ligand population due to amine coupling), it is considered that the results from the GAH-Fc capture experiments reported here represent the most reliable ProteOn SPR data, despite the non-conforming 1:1 Langmuir fits observed in many instances. A heterogeneous ligand model was chosen to fit the data assuming two different ligand species, either due to the heterogeneity in the ligand protein population or due to potential different mechanisms for each FN3 domain binding to the 2 hCD8A monomers in the Fc fusion protein.

[3] = target: T1, human CD8A-Fc (recombinant human CD8 …); experiment: SPR (ProteOn), captured hCD8A-Fc, heterogeneous ligand fit, higher affinity population
Description: as §1

[4] = target: T1, human CD8A-Fc (recombinant human CD8 …); experiment: SPR on recombinant human CD8 alpha after DFO conjugation, lower affinity population
Description: (§2) Data analyses were performed using Bio-Rad ProteOn Manager software (version 3.1.0.6). Raw data were double referenced by subtraction of the interspot (empty chip surface, no protein immobilized or captured) signals to correct the non-specific binding of the FN3 domain to the pre-coated GAH-Fc IgG surface, followed by a double referencing using the buffer blank response (to correct for any baseline drift resulting from ligand dissociation over time). […] Given that the GAH-Fc capture of hCD8A-Fc format is the least disruptive relative to other formats in introducing potential experimental artifacts (such as ligand activity loss and/or artificial eptiopes/heterogeneous ligand population due to amine coupling), it is considered that the results from the GAH-Fc capture experiments reported here represent the most reliable ProteOn SPR data, despite the non-conforming 1:1 Langmuir fits observed in many instances. A heterogeneous ligand model was chosen to fit the data assuming two different ligand species, either due to the heterogeneity in the ligand protein population or due to potential different mechanisms for each FN3 domain binding to the 2 hCD8A monomers in the Fc fusion protein. In this case, because each anti-CD8A FN3 domain would have separate affinities, the resultant sensorgram reflects the sum of two independent reactions with two sets of rate constants, which were reported for each FN3 domain binding.
(§3) Following conjugation to DFO, the binding of each anti-CD8A FN3 domain to recombinant human CD8 alpha was assessed by surface plasmon resonance as previously described. All samples retained tight binding to human CD8A following mutation of E54 to Cys and conjugation to DFO (Table 8).

[5] = target: T1, human CD8A-Fc (recombinant human CD8 …); experiment: SPR on recombinant human CD8 alpha after DFO conjugation, higher affinity population
Description: as §2, §3

Binder | koff [1] [s⁻¹] | Kd [2] [nM] | koff [2] [s⁻¹] | kon [2] [M⁻¹ s⁻¹] | Kd [3] [nM] | koff [3] [s⁻¹] | kon [3] [M⁻¹ s⁻¹] | Kd [4] [nM] | koff [4] [s⁻¹] | kon [4] [M⁻¹ s⁻¹] | Kd [5] [nM] | koff [5] [s⁻¹] | kon [5] [M⁻¹ s⁻¹]
P282ER9P1360_C8 (designed binder, FN3 domain (Centyrin); purified as His-tagged protein, tag not in the entry) LPAPKNLVVSRVTEDSARLSWTAPDAAFDSFGILYYEPVDSGEAITLPVPGSERSYDLTGLKPGTEYWVVITGVKGGAPSTPLGTIFTT | 0.000179 | 4.1 | 9.52e-05 | 30900 | 0.2 | 4.71e-05 | 218000 |  |  |  |  |  | 
CD8S389 (designed binder, W68F mutant of P282ER9P1360_C8; the entry holds the mutation) LPAPKNLVVSRVTEDSARLSWTAPDAAFDSFGILYYEPVDSGEAITLPVPGSERSYDLTGLKPGTEYFVVITGVKGGAPSTPLGTIFTT | 0.000184 |  |  |  |  |  |  |  |  |  |  |  | 
CD8S405 (designed binder, P48T mutant of P282ER9P1360_C8; the entry holds the mutation) LPAPKNLVVSRVTEDSARLSWTAPDAAFDSFGILYYEPVDSGEAITLTVPGSERSYDLTGLKPGTEYWVVITGVKGGAPSTPLGTIFTT | 0.00114 |  |  |  |  |  |  |  |  |  |  |  | 
CD8S365-DFO (designed binder, deferoxamine (DFO) conjugated to the free cysteine introduced by E54C, DFO conjugate of CD8S365) LPAPKNLVVSRVTEDSARLSWTAPDAAFDSFGILYYEPVDSGEAITLPVPGSCRSYDLTGLKPGTEYWVVITGVKGGAPSTPLGTIFTT |  |  |  |  |  |  |  | 9.73 | 4.29e-05 | 4410 | 0.6 | 4.18e-05 | 68000
P282DR9P1359_G7 (designed binder, FN3 domain (Centyrin); purified as His-tagged protein, tag not in the entry) LPAPKNLVVSRVTEDSARLSWTAPDAAFDSFAITYIEKEHIEDGEAIVLTVPGSERSYDLTGLKPGTEYWVPIWGVKGGANSWPLSAIFTT | 1.06e-05 | 2.1 | 5.51e-05 | 68400 | 0.05 | 1.49e-05 | 276000 |  |  |  |  |  | 
CD8S368-DFO (designed binder, deferoxamine (DFO) conjugated to the free cysteine introduced by E54C, DFO conjugate of CD8S368) LPAPKNLVVSRVTEDSARLSWTAPDAAFDSFQIAYPEWPPPGEAIVLTVPGSCRSYDLTGLKPGTEYFVIIQGVKGGVESWPLSAIFTT |  |  |  |  |  |  |  | 13.6 | 9.98e-05 | 7320 | 0.23 | 2.53e-05 | 108000
P283AR9P1362_D6 (designed binder, FN3 domain (Centyrin); purified as His-tagged protein, tag not in the entry) LPAPKNLVVSRVTEDSARLSWAKRPGAFDSFLIQYQESEKVGEAIVLTVPGSERSYDLTGLKPGTEYTVSIYGVDVKYDIDSRPISSNPLSAIFTT |  | 0.98 | 3.12e-05 | 56200 | 0.03 | 1e-06 | 155000 |  |  |  |  |  | 
P282DR9P1359_C5 (designed binder, FN3 domain (Centyrin); purified as His-tagged protein, tag not in the entry) LPAPKNLVVSRVTEDSARLSWTAPDAAFDSFWITYPEWPDPGGEAIVLTVPGSERSYDLTGLKPGTEYFVVIYGVKGGEIYSPLSAIFTT | 0.000147 | 6.5 | 0.000127 | 19200 | 0.02 | 5.79e-06 | 300000 |  |  |  |  |  | 
CD8S366-DFO (designed binder, deferoxamine (DFO) conjugated to the free cysteine introduced by E54C, DFO conjugate of CD8S366) LPAPKNLVVSRVTEDSARLSWTAPDAAFDSFWITYPEWPDPGGEAIVLTVPGSCRSYDLTGLKPGTEYFVVIYGVKGGEIYSPLSAIFTT |  |  |  |  |  |  |  | 18.2 | 0.000106 | 5850 | 0.9 | 7.01e-05 | 79500

Continued, values first:

koff [1] [s⁻¹] | Kd [2] [nM] | koff [2] [s⁻¹] | kon [2] [M⁻¹ s⁻¹] | Kd [3] [nM] | koff [3] [s⁻¹] | kon [3] [M⁻¹ s⁻¹] | Kd [4] [nM] | koff [4] [s⁻¹] | kon [4] [M⁻¹ s⁻¹] | Kd [5] [nM] | koff [5] [s⁻¹] | kon [5] [M⁻¹ s⁻¹] | Binder
0.00032 |  |  |  |  |  |  |  |  |  |  |  |  | CD8S391 (designed binder, W68H mutant of P282ER9P1360_C8; the entry holds the mutation) LPAPKNLVVSRVTEDSARLSWTAPDAAFDSFGILYYEPVDSGEAITLPVPGSERSYDLTGLKPGTEYHVVITGVKGGAPSTPLGTIFTT
0.000152 |  |  |  |  |  |  |  |  |  |  |  |  | CD8S390 (designed binder, W68Y mutant of P282ER9P1360_C8; the entry holds the mutation) LPAPKNLVVSRVTEDSARLSWTAPDAAFDSFGILYYEPVDSGEAITLPVPGSERSYDLTGLKPGTEYYVVITGVKGGAPSTPLGTIFTT
 |  |  |  |  |  |  | 13 | 7.65e-05 | 5910 | ≤ 0.3 | ≤ 2e-05 | 46400 | CD8S370-DFO (designed binder, deferoxamine (DFO) conjugated to the free cysteine introduced by E54C, DFO conjugate of CD8S370) LPAPKNLVVSRVTEDSARLSWTAPDAAFDSFAITYIEKEHIEDGEAIVLTVPGSCRSYDLTGLKPGTEYWVPIWGVKGGANSWPLSAIFTT
 |  |  |  |  |  |  | 89.1 | 0.000975 | 10900 | 1.55 | 0.000131 | 84500 | CD8S367-DFO (designed binder, deferoxamine (DFO) conjugated to the free cysteine introduced by E54C, DFO conjugate of CD8S367) LPAPKNLVVSRVTEDSARLSWTAPDAAFDSFAIAYPEWPPQGEAIVLTVPGSCRSYDLTGLKPGTEYFVVIYGVKGGSYSAPLSAIFTT
0.000339 | 12 | 0.000365 | 40300 | 0.5 | 7.99e-05 | 404000 |  |  |  |  |  |  | P282DR9P1359_F7 (designed binder, FN3 domain (Centyrin); purified as His-tagged protein, tag not in the entry) LPAPKNLVVSRVTEDSARLSWTAPDAAFDSFAIAYPEWPPQGEAIVLTVPGSERSYDLTGLKPGTEYFVVIYGVKGGSYSAPLSAIFTT
 |  |  |  |  |  |  | ≤ 3.4 | ≤ 1e-05 | 2870 | ≤ 0.3 | ≤ 1e-05 | 37300 | CD8S369-DFO (designed binder, deferoxamine (DFO) conjugated to the free cysteine introduced by E54C, DFO conjugate of CD8S369) LPAPKNLVVSRVTEDSARLSWAKRPGAFDSFLIQYQESEKVGEAIVLTVPGSCRSYDLTGLKPGTEYTVSIYGVDVKYDIDSRPISSNPLSAIFTT
